In US20230080534A1 (SHANGHAI BIOTROY BIOTECHNIQUE, published 2023):
No end group written: not given here.

Assays:
[1] = target: T1, human SEMG2 full-length protein (human, UniProt Q02383 24-582, limits assumed); test: biolayer interferometry (ForteBio Blitz or Gator)
T1 construct: also called SEMG2 protein; semenogelin 2
T1 sequence: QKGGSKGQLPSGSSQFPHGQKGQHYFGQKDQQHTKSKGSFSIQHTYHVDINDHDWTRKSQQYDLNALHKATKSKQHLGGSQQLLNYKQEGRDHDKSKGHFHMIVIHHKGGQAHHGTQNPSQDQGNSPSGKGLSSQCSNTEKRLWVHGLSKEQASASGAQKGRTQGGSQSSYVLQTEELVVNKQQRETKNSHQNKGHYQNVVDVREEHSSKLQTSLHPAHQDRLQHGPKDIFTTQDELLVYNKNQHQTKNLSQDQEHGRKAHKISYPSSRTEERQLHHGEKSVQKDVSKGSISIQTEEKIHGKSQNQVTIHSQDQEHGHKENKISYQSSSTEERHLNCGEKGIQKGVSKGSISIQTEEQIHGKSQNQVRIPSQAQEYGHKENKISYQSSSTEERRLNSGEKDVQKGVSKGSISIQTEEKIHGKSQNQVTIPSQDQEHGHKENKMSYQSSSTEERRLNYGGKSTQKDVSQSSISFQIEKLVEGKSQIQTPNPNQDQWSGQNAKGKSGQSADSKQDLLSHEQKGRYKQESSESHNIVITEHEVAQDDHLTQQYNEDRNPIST
Protocol: The equilibrium dissociation constant (KD) of the antibody of the present invention binding to human SEMG2 was determined by biolayer interferometry (ForteBio Bltz or Gator instrument). […] 100 μl of SD buffer, antibody and SEMG2 were added to a 96-well black polystyrene half area microplate, respectively. Select the sensor location based on the sample location layout. KD values were analyzed using molecular interaction analysis software. In the experiments of the assays, the affinity constants of murine monoclonal antibodies and human antibodies H88-67, H88-93 and H88-96 are shown in Table 8, and the affinity and dissociation curves of SEMG2 and corresponding proteins are shown in FIG. 25.

[2] = target: T1, human SEMG2 full-length protein; test: ELISA, immobilized antigen SEMG2 (1-582)
Excerpt: (§1) To clearly distinguish the binding epitopes of blocking antibodies (i.e., antibodies that can inhibit the binding between SEMG2 and CD27) and non-blocking antibodies, a corresponding ELISA analysis method was established. […] Anti-mouse or anti-rabbit secondary antibodies were then used to detect the corresponding bound antibodies.

AIEKLVEGKSQIQ = target: T2, AIEKLVEGKSQIQ (not fully specified); test: ELISA, immobilized peptide AIEKLVEGKSQIQ
T2 construct: member of the group m41; the text speaks of glycine substitution, the sheet prints alanine
T2 peptide: AIEKLVEGKSQIQ
Excerpt: (§2) FIG. 20 depicts the value detected by ELISA, i.e., OD₄₅₀ absorbance. […] This experiment is used to determine the precise amino acid epitopes that different monoclonal antibodies bind to, and the relative importance of each amino acid to the binding antibody.

QAEKLVEGKSQIQ = target: T3, QAEKLVEGKSQIQ (not fully specified); test: ELISA, immobilized peptide QAEKLVEGKSQIQ
T3 construct: member of the group m41; the text speaks of glycine substitution, the sheet prints alanine
T3 peptide: QAEKLVEGKSQIQ
Excerpt: as §2

QIAKLVEGKSQIQ = target: T4, QIAKLVEGKSQIQ (not fully specified); test: ELISA, immobilized peptide QIAKLVEGKSQIQ
T4 construct: member of the group m41; the text speaks of glycine substitution, the sheet prints alanine
T4 peptide: QIAKLVEGKSQIQ

QIEALVEGKSQIQ = target: T5, QIEALVEGKSQIQ (not fully specified); test: ELISA, immobilized peptide QIEALVEGKSQIQ
T5 construct: member of the group m41; the text speaks of glycine substitution, the sheet prints alanine
T5 peptide: QIEALVEGKSQIQ
Excerpt: as §2

QIEKAVEGKSQIQ = target: T6, QIEKAVEGKSQIQ (not fully specified); test: ELISA, immobilized peptide QIEKAVEGKSQIQ
T6 construct: alanine at this position
T6 peptide: QIEKAVEGKSQIQ
Excerpt: as §2

QIEKLAEGKSQIQ = target: T7, QIEKLAEGKSQIQ (not fully specified); test: ELISA, immobilized peptide QIEKLAEGKSQIQ
T7 construct: member of the group m41; the text speaks of glycine substitution, the sheet prints alanine
T7 peptide: QIEKLAEGKSQIQ
Excerpt: as §2

QIEKLVAGKSQIQ = target: T8, QIEKLVAGKSQIQ (not fully specified); test: ELISA, immobilized peptide QIEKLVAGKSQIQ
T8 construct: member of the group m41; the text speaks of glycine substitution, the sheet prints alanine
T8 peptide: QIEKLVAGKSQIQ
Excerpt: as §2
To further precisely define the exact epitopes (specific to the level of single amino acid) to which blocking antibodies MM02, MM05, MM07, MM08, MM13, MM14 bind, corresponding ELISA analysis method was established. […] Anti-mouse or anti-rabbit secondary antibodies were then used to detect the corresponding bound antibodies.

QIEKLVEAKSQIQ = target: T9, QIEKLVEAKSQIQ; test: ELISA, immobilized peptide QIEKLVEAKSQIQ
T9 construct: member of the group m41; position 504 is glycine in SEMG2 and the sheet prints alanine there
T9 peptide: QIEKLVEAKSQIQ
Excerpt: as §2

QIEKLVEGASQIQ = target: T10, QIEKLVEGASQIQ (not fully specified); test: ELISA, immobilized peptide QIEKLVEGASQIQ
T10 construct: member of the group m41; the text speaks of glycine substitution, the sheet prints alanine
T10 peptide: QIEKLVEGASQIQ
Excerpt: as §2

QIEKLVEGKAQIQ = target: T11, QIEKLVEGKAQIQ (not fully specified); test: ELISA, immobilized peptide QIEKLVEGKAQIQ
T11 construct: alanine at this position
T11 peptide: QIEKLVEGKAQIQ
Excerpt: as §2

QIEKLVEGKSAIQ = target: T12, QIEKLVEGKSAIQ (not fully specified); test: ELISA, immobilized peptide QIEKLVEGKSAIQ
T12 construct: alanine at this position
T12 peptide: QIEKLVEGKSAIQ
Excerpt: as §2

QIEKLVEGKSQAQ = target: T13, QIEKLVEGKSQAQ (not fully specified); test: ELISA, immobilized peptide QIEKLVEGKSQAQ
T13 construct: member of the group m41; the text speaks of glycine substitution, the sheet prints alanine
T13 peptide: QIEKLVEGKSQAQ
Excerpt: as §2

QIEKLVEGKSQIA = target: T14, QIEKLVEGKSQIA (not fully specified); test: ELISA, immobilized peptide QIEKLVEGKSQIA
T14 construct: alanine at this position
T14 peptide: QIEKLVEGKSQIA
Excerpt: as §2

[3] = target: T15, SEMG2(497-509) polypeptide QIEKLVEGKSQIQ (human); test: ELISA, immobilized peptide QIEKLVEGKSQIQ
T15 peptide: QIEKLVEGKSQIQ
Excerpt: as §2

SEMG2(354-403) fragment = target: T16, SEMG2(354-403) fragment (human); test: ELISA, immobilized antigen SEMG2 (354-403)
T16 peptide: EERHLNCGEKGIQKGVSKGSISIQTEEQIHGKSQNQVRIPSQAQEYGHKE
Excerpt: as §1

SEMG2(442-453) fragment = target: T17, SEMG2(442-453) fragment (human); test: ELISA, immobilized antigen SEMG2 (442-453)
T17 peptide: IHGKSQNQVTIP
Excerpt: as §1

[4] = target: T15, SEMG2(497-509) polypeptide QIEKLVEGKSQIQ; test: ELISA, immobilized antigen SEMG2 (497-509)
Excerpt: as §1

SEMG2(563-574) fragment = target: T18, SEMG2(563-574) fragment (human); test: ELISA, immobilized antigen SEMG2 (563-574)
T18 peptide: VAQDDHLTQQYN
Excerpt: as §1

[5] = target: T19, BSA-conjugated human SEMG2 (497-509) polypeptide (human, also: coupled to BSA, site not given here); test: ELISA on BSA-SEMG2 (497-509), antibody titrated
T19 peptide: QIEKLVEGKSQIQ

[6] = target: T1, human SEMG2 full-length protein; test: ELISA, plate coated with SEMG2 protein, anti-mouse secondary antibody; the EC50 table prints no unit, the axis is log (antibody concentration, nM)
[7] = target: T1, human SEMG2 full-length protein; test: ELISA on SEMG2 protein; the EC50 table prints no unit, the axis is log (antibody concentration, nM)
[8] = target: T1, human SEMG2 full-length protein; test: ELISA (FIG. 21B-D)
[9] = target: T19, BSA-conjugated human SEMG2 (497-509) …; test: ELISA (FIG. 21B-D)
[10] = target: T1, human SEMG2 full-length protein; test: ELISA on SEMG2; the EC50 table prints no unit, the axis is log (antibody concentration, nM)
[11] = target: T19, BSA-conjugated human SEMG2 (497-509) …; test: ELISA on BSA-S2 (497-509); curve without upper plateau; the EC50 table prints no unit, the axis is log (antibody concentration, nM)
[12] = target: T1, human SEMG2 full-length protein; test: ELISA on SEMG2; the EC50 table prints no unit, the axis is log (antibody concentration, nM); remark: listed apart in the source
[13] = target: T1, human SEMG2 full-length protein; test: as above; remark: listed apart in the source

B1: MM02 (antibody, IgG2b, V domains shown)
VH: QIQLVQSGPEVKKPGETVRISCKASGYTLTTAGIQWVQKMPGKGLKWIGWINTHSGVPEYAEDFKGRFAFFLETSASTAYLQISNLKNEDTATYFCARLGLLGYWGQGTTLTVSS
VL: DILLTQSPAILSVSPGERVSFSCRASQSIGTTIHWYQQRTNGSPRLLIKYASESISGIPSRFSGSGSGTDFTLSINSVESEDIADYYCQQSNSWPWTFGGGTKLEIKR
B1 gave a Kd [1] of 1.33 nM, an A450 absorbance [2] of 1.2 and an OD450 absorbance (AIEKLVEGKSQIQ) of 0.45. The OD450 absorbance (QAEKLVEGKSQIQ) was 0.541, the OD450 absorbance (QIAKLVEGKSQIQ) was 0.788 and the OD450 absorbance (QIEALVEGKSQIQ) was 0.47. It also gave an OD450 absorbance (QIEKAVEGKSQIQ) of 0.051, an OD450 absorbance (QIEKLAEGKSQIQ) of 0.928 and an OD450 absorbance (QIEKLVAGKSQIQ) of 0.48. For the same binder, the OD450 absorbance (QIEKLVEAKSQIQ) was 0.766, the OD450 absorbance (QIEKLVEGASQIQ) was 0.949 and the OD450 absorbance (QIEKLVEGKAQIQ) was 0.173. It also gave an OD450 absorbance (QIEKLVEGKSAIQ) of 1.26, an OD450 absorbance (QIEKLVEGKSQAQ) of 0.894 and an OD450 absorbance (QIEKLVEGKSQIA) of 1.15. The OD450 absorbance [3] was 1.26, the A450 absorbance (SEMG2(354-403) fragment) was 0.004 and the binding result (SEMG2(354-403) fragment) was “no binding”. For the same binder, the A450 absorbance (SEMG2(442-453) fragment) was 0.001, the binding result (SEMG2(442-453) fragment) was “no binding” and the A450 absorbance [4] was 1.18. The A450 absorbance (SEMG2(563-574) fragment) was 0.005, the binding result (SEMG2(563-574) fragment) was “no binding” and the “EC50 (read off the curve)” value [5] was roughly 4 ng/mL. For the same binder, the EC50 [6] was 0.176 nM.

B2: MM05V4V2 (antibody, V domains shown)
VH: QVQLVQSGAEVKKPGASVKVSCKASGYTFTSYWMNWVRQAPGQGLEWVGMIDPSDSETHYAQKFQGRVTITADKSTSTVYMELSSLRSEDTAVYYCARYLGGKEGSFDYWGQGTLVTVSS
VL: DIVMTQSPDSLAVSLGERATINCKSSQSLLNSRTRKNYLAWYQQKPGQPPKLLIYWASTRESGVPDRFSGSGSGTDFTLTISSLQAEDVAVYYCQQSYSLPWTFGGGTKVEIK
notes: humanized MM05 antibody, one member of the group m49
In the case of B2, the EC50 [7] is reported as 0.18 nM.

B3: MM05V3V2 (antibody, V domains shown)
VH: QVQLVQSGAEVKKPGASVKVSCKASGYTFTSYWMNWVRQAPGQGLEWVGMIDPSDSETHYAQKFQGRVTITVDKSTSTVYMELSSLRSEDTAVYYCARYLGGKEGSFDYWGQGTLVTVSS
VL: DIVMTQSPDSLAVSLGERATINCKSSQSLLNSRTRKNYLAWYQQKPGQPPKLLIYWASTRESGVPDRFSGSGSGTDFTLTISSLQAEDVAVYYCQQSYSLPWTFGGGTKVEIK
notes: as for B2
Binder B3 has an EC50 [7] of 0.092 nM.

B4: MM05V4V1 (antibody, V domains shown)
VH: QVQLVQSGAEVKKPGASVKVSCKASGYTFTSYWMNWVRQAPGQGLEWVGMIDPSDSETHYAQKFQGRVTITADKSTSTVYMELSSLRSEDTAVYYCARYLGGKEGSFDYWGQGTLVTVSS
VL: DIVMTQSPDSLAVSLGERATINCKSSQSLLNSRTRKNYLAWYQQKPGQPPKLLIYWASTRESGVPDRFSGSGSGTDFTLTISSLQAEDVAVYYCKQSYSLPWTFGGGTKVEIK
notes: as for B2
In the case of B4, the EC50 [7] is reported as 0.123 nM.

B5: 96-10V-10 (antibody, V domains shown)
VH: QVQLLESGGGLVQPGGSLRLSCSASGFTFSSYAMHWVRQAPGKGLEYVSAISSNGGSTYYADSVKGRFTISRDNSKNTLYLQMSSLRAEDTAVYYCVIEGGSTGSTVSGAFDIWGQGTMVTVSS
VL: DIQMIQSPPSVSASVGDTVTIACRANQGIDSWLAWYQQKPGRAPKLLIYSASRLQSGVPSRFSGGGSGTDFALTISNLQPEDFATYYCQQALSLPITFGQGTRLEIK
In the case of B5, the “fold higher affinity than the parent antibody (H88-96)” value [8] is reported as greater than 10 fold, the “fold higher affinity than the parent antibody (H88-96)” value [9] is reported as greater than 10 fold and the EC50 [10] is reported as 0.358 nM. The EC50 [11] was 32.2 nM.

B6: H88-96 (antibody, V domains shown)
VH: QVQLLESGGGLVQPGGSLRLSCSASGFTFSSYAMHWVRQAPGKGLEYVSAISSNGGSTYYADSVKGRFTISRDNSKNTLYLQMSSLRAEDTAVYYCVIEGGSTTGTTSGAFDIWGQGTMVTVSS
VL: DIQMIQSPPSVSASVGDTVTIACRANQGIDSWLAWYQQKPGRAPKLLIYSASRLQSGVPSRFSGGGSGTDFALTISNLQPEDFATYYCQQALSLPITFGQGTRLEIK
notes: Fully human full-length antibody built from a phage Fab
Work on B6 yielded a Kd [1] of 14 nM, an EC50 [12] of 9.3 nM and an EC50 [10] of 14 nM. It also gave an EC50 [11] of 95.7 nM.

B7: H88-67 (antibody, V domains shown)
VH: QVQLLESGGGVVQPGRSLRLSCAASGFTFSSYAMHWVRQAPGKGLEWVAVISYDGSNKYYADSVKGRFTISRDNSKNTLYLQMNSLRAEDTAVYYCARMDGSGSPDYWGQGTLVTVSS
VL: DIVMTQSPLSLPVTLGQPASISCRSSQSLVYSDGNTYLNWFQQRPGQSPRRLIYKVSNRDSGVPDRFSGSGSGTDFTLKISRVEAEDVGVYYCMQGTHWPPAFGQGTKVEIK
notes: as for B6
With B7 the Kd [1] was 28.4 nM, the EC50 [12] was 0.863 nM and the EC50 [13] was 2.13 nM. For the same binder, the EC50 [11] was 57.5 nM.
